Test results: patent US20240116985A1 (published 2024)
Starred links: 1 amine or outer side, 2 acyl side, 3 side chain; linkers in the order of their positions; H or OH if unused. Positions of bridges follow the written chain, without caps; N, C: chain ends. Non-standard residues stand in square brackets, D forms with d. Primed or numbered codes have the meaning given here. *: point of attachment. PyrS2″ = (S)-3-amino-1-((pent-4-en-1-yloxy)carbonyl)pyrrolidine-3-carboxylic acid (stapling residue), C=CCCCOC(=O)N1CC[C@@](N[*:1])(C(=O)[*:2])C1; HypBzEs3OAllyl = (2R,4S)-4-((3-(allyloxy)benzoyl)oxy)pyrrolidine-2-carboxylic acid, C=CCOc1cccc(C(=O)O[C@H]2C[C@H](C(=O)[*:2])N([*:1])C2)c1; TfeGA = (S)-2-amino-3-((carboxymethyl)(2,2,2-trifluoroethyl)amino)propanoic acid, O=C([C@H](CN(CC(=O)[*:3])CC(F)(F)F)N[*:1])[*:2]; PyrS2 = (S)-3-amino-1-((pent-4-en-1-yloxy)carbonyl)pyrrolidine-3-carboxylic acid, C=CCCCOC(=O)N1CC[C@@](N[*:1])(C(=O)[*:2])C1; PyrS3 = (S)-3-amino-1-((hex-5-en-1-yloxy)carbonyl)pyrrolidine-3-carboxylic acid, C=CCCCCOC(=O)N1CC[C@@](N[*:1])(C(=O)[*:2])C1; B5(7) = 2-amino-2-(pent-4-en-1-yl)hept-6-enoic acid, two olefinic side chains, C=CCCCC(CCCC=C)(N[*:1])C(=O)[*:2]; B5(3) = 2,2-bis(4-pentenyl)glycine (stitching residue), C=CCCCC(CCCC=C)(N[*:1])C(=O)[*:2]; Phe(3-COOH) = N[C@@H](Cc1cccc(C(=O)O)c1)C(=O)O; 2F3MeF = Cc1cccc(C[C@H](N[*:1])C(=O)[*:2])c1F; Phe(2-CF3) = N[C@@H](Cc1ccccc1C(F)(F)F)C(=O)O; Phe(2-Cl) = N[C@@H](Cc1ccccc1Cl)C(=O)O; Bta = N[C@@H](Cc1csc2ccccc12)C(=O)O; αAllylPro = C=CC[C@@]1(C(=O)O)CCCN1; tBuAla = CC(C)(C)C[C@H](N)C(=O)O; 3Thi = N[C@@H](Cc1ccsc1)C(=O)O; 2F3MeF(3) = Phe analogue; Abu = CC[C@H](N)C(=O)O; Aib = CC(C)(N)C(=O)O; Moc = COC(=O)*

T1: Bcat-Halo (UniProt P35222 1-781)
T1 sequence (looked up): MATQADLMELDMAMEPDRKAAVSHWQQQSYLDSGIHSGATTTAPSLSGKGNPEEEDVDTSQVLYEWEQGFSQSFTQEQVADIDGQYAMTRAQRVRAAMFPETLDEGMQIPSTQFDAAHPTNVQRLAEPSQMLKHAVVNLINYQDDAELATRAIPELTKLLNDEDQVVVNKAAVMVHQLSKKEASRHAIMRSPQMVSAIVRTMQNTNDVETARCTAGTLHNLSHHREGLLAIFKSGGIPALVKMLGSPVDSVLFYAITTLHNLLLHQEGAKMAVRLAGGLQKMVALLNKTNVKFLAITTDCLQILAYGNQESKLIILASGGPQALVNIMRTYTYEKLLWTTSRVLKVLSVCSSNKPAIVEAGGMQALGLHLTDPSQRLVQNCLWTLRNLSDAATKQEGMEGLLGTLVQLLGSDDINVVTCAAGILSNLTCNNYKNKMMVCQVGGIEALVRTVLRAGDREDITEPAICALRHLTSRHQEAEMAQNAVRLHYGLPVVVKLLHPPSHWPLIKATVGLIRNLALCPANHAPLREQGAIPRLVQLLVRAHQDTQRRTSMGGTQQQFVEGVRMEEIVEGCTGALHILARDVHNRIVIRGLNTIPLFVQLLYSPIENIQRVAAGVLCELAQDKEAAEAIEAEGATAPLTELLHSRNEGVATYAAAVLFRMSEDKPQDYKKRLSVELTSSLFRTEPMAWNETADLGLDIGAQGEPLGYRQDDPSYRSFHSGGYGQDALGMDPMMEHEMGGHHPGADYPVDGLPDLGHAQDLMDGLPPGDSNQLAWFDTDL

T2: B-cat-Halo (beta-catenin HaloTag NanoBRET construct expressed in HEK293 cells) (UniProt P35222 1-781)
T2 sequence (looked up): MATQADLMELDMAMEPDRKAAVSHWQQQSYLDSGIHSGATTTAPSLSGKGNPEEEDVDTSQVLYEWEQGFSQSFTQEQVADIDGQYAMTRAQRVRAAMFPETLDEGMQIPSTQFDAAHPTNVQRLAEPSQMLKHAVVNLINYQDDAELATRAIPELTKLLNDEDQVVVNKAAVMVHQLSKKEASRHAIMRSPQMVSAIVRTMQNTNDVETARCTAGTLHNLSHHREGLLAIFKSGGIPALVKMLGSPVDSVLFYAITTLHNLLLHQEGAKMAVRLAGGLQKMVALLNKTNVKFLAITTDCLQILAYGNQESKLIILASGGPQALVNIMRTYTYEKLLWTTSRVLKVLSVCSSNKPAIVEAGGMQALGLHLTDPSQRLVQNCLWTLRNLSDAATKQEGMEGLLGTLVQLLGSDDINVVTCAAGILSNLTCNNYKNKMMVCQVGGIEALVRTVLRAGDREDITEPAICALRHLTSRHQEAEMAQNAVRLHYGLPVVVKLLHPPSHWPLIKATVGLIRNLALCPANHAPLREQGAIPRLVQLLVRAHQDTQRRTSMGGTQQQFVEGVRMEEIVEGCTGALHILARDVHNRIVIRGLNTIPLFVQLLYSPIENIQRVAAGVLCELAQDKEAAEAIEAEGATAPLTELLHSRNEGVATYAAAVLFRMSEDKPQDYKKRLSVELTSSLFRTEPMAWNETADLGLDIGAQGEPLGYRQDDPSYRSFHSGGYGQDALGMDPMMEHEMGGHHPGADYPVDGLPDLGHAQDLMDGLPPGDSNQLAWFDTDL

T3: B-cat-Halo (NanoBRET construct expressed in HEK293 cells) (UniProt P35222 1-781, HaloTag NanoBRET 618 Ligand bound in the assay)
T3 sequence (looked up): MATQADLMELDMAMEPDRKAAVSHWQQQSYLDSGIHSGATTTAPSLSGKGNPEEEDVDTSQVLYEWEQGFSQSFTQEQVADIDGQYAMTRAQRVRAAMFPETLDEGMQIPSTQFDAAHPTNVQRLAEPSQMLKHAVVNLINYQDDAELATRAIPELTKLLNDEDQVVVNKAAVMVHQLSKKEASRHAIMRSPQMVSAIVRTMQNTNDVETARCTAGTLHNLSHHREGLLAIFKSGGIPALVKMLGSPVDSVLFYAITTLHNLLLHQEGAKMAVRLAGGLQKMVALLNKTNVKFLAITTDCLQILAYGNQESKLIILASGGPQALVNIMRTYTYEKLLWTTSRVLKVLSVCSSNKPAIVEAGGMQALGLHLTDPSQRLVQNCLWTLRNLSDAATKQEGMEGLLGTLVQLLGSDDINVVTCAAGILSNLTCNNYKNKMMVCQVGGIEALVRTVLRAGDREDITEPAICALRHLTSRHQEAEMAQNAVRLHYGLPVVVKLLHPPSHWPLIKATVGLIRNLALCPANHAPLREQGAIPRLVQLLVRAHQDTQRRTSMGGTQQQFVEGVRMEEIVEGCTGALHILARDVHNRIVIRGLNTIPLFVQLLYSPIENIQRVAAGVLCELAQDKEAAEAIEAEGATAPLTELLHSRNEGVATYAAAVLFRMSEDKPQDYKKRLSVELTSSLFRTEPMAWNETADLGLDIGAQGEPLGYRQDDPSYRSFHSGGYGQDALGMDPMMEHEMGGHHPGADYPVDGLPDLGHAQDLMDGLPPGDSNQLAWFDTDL


Target: T1, Bcat-Halo
Assay: cell-based or functional assay

Row | Binder | NanoBRET Abs IC50
1 | Ac-[HypBzEs3OAllyl]D[tBuAla][B5(3)]D[TfeGA]AAFL[PyrS2″][3Thi][Bta]Q-NH2 (staple 1-4, 4-11; also: staple -CH=CH- reduced to -CH2-CH2-) [I-2328] | > 20 µM
2 | Moc-[αAllylPro]D[tBuAla][B5(3)]D[Phe(3-COOH)]AAFL[PyrS2″][Phe(2-Cl)][Bta]A-NH2 (staple 1-4, 4-11) [I-2324] | 14.8 µM

Target: T2, B-cat-Halo (beta-catenin HaloTag …)
Assay: cell-based or functional assay

Row | Binder | NanoBRET Abs IC50
3 | Ac-[αAllylPro]D[tBuAla][B5(3)]D[Phe(3-COOH)]QAFL[PyrS2″][Phe(2-CF3)][RbMe2NapA]A-NH2 (staple 1-4, 4-11) [Ac-PL3-Asp-Npg-B5-Asp-3COOHF-Gln-Ala-Phe-Leu-PyrS2-2F3MeF-RbMe2NapA-Ala-NH2] | 6.5 µM
4 | Ac-[αAllylPro]D[tBuAla][B5(3)]D[TfeGA]AAFL[PyrS2″][3Thi][Bta][(NHEt)GlnR]A-NH2 (staple 1-4, 4-11) [Ac-PL3-Asp-Npg-B5-Asp-TfeGA-Ala-Ala-Phe-Leu-PyrS2-3Thi-BztA-[NHEt]GlnR-Ala-NH2] | 2.1 µM
5 | Ac-[αAllylPro]D[tBuAla][B5(3)]NT[Aib]AFN[PyrS2″][3Thi][Bta]K-NH2 (staple 1-4, 4-11) [Ac-PL3-Asp-Npg-B5-Asn-Thr-Aib-Ala-Phe-Asn-PyrS2-3Thi-BztA-Lys-NH2] | > 20 µM
6 | Ac-[αAllylPro]D[tBuAla][B5(3)]D[Phe(3-COOH)]QAFL[PyrS2″][2F3MeF(3)][SbMe2NapA]A-NH2 (staple 1-4, 4-11) [Ac-PL3-Asp-Npg-B5-Asp-3COOHF-Gln-Ala-Phe-Leu-PyrS2-2F3MeF-SbMe2NapA-Ala-NH2] | > 20 µM
7 | Ac-[αAllylPro]D[tBuAla][B5(3)]D[Phe(3-COOH)]AAF[Abu][PyrS2″][2F3MeF][Bta][(NHEt)GlnR]A-NH2 (staple 1-4, 4-11) [Ac-PL3-Asp-Npg-B5-Asp-3COOHF-Ala-Ala-Phe-Abu-PyrS2-2F3MeF-BztA-[NHEt]GlnR-Ala-NH2] | 1.8 µM
8 | Ac-[αAllylPro]D[tBuAla][B5(3)]D[Phe(3-COOH)]AAFL[PyrS2″][Phe(2-CF3)][SbMe2NapA]Q-NH2 (staple 1-4, 4-11) [Ac-PL3-Asp-Npg-B5-Asp-3COOHF-Ala-Ala-Phe-Leu-PyrS2-2F3MeF-SbMe2NapA-Gln-NH2] | 16.5 µM
9 | Ac-[αAllylPro]D[tBuAla][B5(3)]D[Phe(3-COOH)]AAFL[PyrS2″][Phe(2-CF3)][2F3MeW]Q-NH2 (staple 1-4, 4-11) [Ac-PL3-Asp-Npg-B5-Asp-3COOHF-Ala-Ala-Phe-Leu-PyrS2-2F3MeF-2F3MeW-Gln-NH2] | > 20 µM
10 | Ac-[αAllylPro]D[tBuAla][B5(3)]D[Phe(3-COOH)]QAFL[PyrS2″][Phe(2-CF3)][2F3MeW]A-NH2 (staple 1-4, 4-11) [Ac-PL3-Asp-Npg-B5-Asp-3COOHF-Gln-Ala-Phe-Leu-PyrS2-2F3MeF-2F3MeW-Ala-NH2] | > 20 µM
11 | Ac-[αAllylPro]D[tBuAla][B5(3)]NT[Aib]AFN[PyrS2″][3Thi][Bta]Y-NH2 (staple 1-4, 4-11) [Ac-PL3-Asp-Npg-B5-Asn-Thr-Aib-Ala-Phe-Asn-PyrS2-3Thi-BztA-Tyr-NH2] | > 20 µM

Target: T3, B-cat-Halo (NanoBRET construct …)
Assay: cell-based or functional assay

Row | Binder | NanoBRET Abs IC50
12 | Ac-[αAllylPro]D[tBuAla][B5(7)]DDAAFQ[PyrS2][3Thi][Bta]Q-NH2 (staple 1-4, 4-11) [I-764] | 30.9 µM
13 | Ac-[αAllylPro]D[tBuAla][B5(7)]D[TfeGA]AAFN[PyrS2][3Thi][Bta]H-NH2 (staple 1-4, 4-11) [I-769] | 13 µM
14 | Ac-[αAllylPro]D[tBuAla][B5(7)]DDAAFN[PyrS3][3Thi][Bta]Q-NH2 (staple 1-4, 4-11) [I-767] | 37.2 µM
15 | Ac-[αAllylPro]D[tBuAla][B5(7)]DDAAFQ[PyrS2][3Thi][Bta]Q-NH2 (staple 1-4, 4-11) [I-763] | 21.3 µM
16 | Ac-[αAllylPro]D[tBuAla][B5(7)]DDAAFN[PyrS3][3Thi][Bta]Q-NH2 (staple 1-4, 4-11) [I-768] | 31.4 µM
